One assay addresses T1, cynomolgus EpCAM protein (cynomolgus monkey).
T1 construct: biotinylated in the Octet assays; also called cy EpCAM; cynomolgus monkey EpCAM
As to the kind of experiment: colorimetric ELISA. From the text: (§1) Llamas were immunized with purified EpCAM protein expressed in Expi293 cells. A phage display library for expression of heavy variable antibody domains was constructed from circulating B cells. See van der Linden, de Geus, Stok, Bos,van Wassenaar, Verrips, and Frenken. 2000. J Immunol Methods 240:185-195. Phage clones were screened for binding to EpCAM by expressing anti-EpCAM proteins in E coli, preparing periplasmic extracts, and proteins were screened for human and cynomolgus EpCAM binding activity using a colorimetric ELISA.

The target in the next assay is T2, human EpCAM protein (human, UniProt P16422 24-265).
T2 construct: biotinylated in the Octet assays; also called hu EpCAM; biotinylated human EpCAM protein
T2 sequence (looked up): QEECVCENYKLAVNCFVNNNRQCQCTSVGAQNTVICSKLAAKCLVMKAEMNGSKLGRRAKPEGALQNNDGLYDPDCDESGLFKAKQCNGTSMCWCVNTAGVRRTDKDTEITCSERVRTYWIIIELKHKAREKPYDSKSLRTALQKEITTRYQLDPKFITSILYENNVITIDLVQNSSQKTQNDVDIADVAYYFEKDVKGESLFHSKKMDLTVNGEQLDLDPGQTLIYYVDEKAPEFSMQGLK
As to the kind of experiment: colorimetric ELISA.
Source text: as §1

Substitutions are numbered along the chain they refer to.

T1 sequence (Q1WER1 24-265): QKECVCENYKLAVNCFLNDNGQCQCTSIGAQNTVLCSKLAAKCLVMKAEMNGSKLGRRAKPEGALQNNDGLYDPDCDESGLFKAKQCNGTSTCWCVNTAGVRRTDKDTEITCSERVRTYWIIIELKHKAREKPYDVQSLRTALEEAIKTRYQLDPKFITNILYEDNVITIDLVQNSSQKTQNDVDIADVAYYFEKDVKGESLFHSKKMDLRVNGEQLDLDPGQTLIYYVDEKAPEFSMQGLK

B1: Llama anti-EpCAM single domain antibody EPL13 (VHH)
VHH: QVQLQESGGGLVQPGGSLRLSCAASGFAFGNHWMYWYRQAPGRGRELVASISSGGSTNYVDSVKGRFTISRDNARNTVYLQMYSLKPEDTAVYYCGTSDNWGQGTQVTVSS
notes: E. coli periplasmic extract
Consider B1, for which, in the assay with cynomolgus EpCAM protein, the “Cynomolgus EpCAM/Control” value amounted to 23 ratio and the ELISA absorbance is 4 absorbance. Moreover, in the assay with human EpCAM protein, the ELISA absorbance was found to be 2.9 absorbance and the “Human EpCAM/Control” value stood at 17 ratio.

B2: Llama anti-EpCAM single domain antibody EPL129 (VHH)
VHH: B1 VHH with P14A, K86R
notes: E. coli periplasmic extract
Regarding B2, in the assay with cynomolgus EpCAM protein, the “Cynomolgus EpCAM/Control” value was 29 ratio and the ELISA absorbance worked out at 3.1 absorbance. Further, in the assay with human EpCAM protein, the ELISA absorbance amounted to 2 absorbance and the “Human EpCAM/Control” value was found to be 20 ratio.

B3: Llama anti-EpCAM single domain antibody EPL15 (VHH)
VHH: QVQLQESGGGSVLAGGSLRLSCAASGFTFSSYYMSWVRQAPGKGLEWVSGIHYTGDWTNYADSVKGRFTISRDNAKNELYLEMNNLKPEDTAVYYCARGSDKGQGTQVTVSS
notes: E. coli periplasmic extract
For the molecule B3, in the assay with cynomolgus EpCAM protein, the “Cynomolgus EpCAM/Control” value was 35 ratio and the ELISA absorbance worked out at 3.2 absorbance. Moreover, in the assay with human EpCAM protein, the ELISA absorbance was 0.7 absorbance and the “Human EpCAM/Control” value was found to be 8 ratio.

B4: Llama anti-EpCAM single domain antibody EPL34 (VHH)
VHH: B3 VHH with L13Q
notes: E. coli periplasmic extract
Turning to B4, in the assay with cynomolgus EpCAM protein, the “Cynomolgus EpCAM/Control” value was 36 ratio and the ELISA absorbance was determined as 3.1 absorbance. For the same molecule, in the assay with human EpCAM protein, the ELISA absorbance was 0.9 absorbance and the “Human EpCAM/Control” value turned out to be 10 ratio.

B5: Llama anti-EpCAM single domain antibody EPL189 (VHH)
VHH: QVQLQESGGGLVQPGGSLRLSCAASGRINSINTMGWYRQAPGNQRELVAEITRGGTTNYADSVQGRYAISRDNAKNLVYLQMNSLKPEDTDVYYCNAQTFPTFSRPTGLDYWGQGTQVTVSS
notes: E. coli periplasmic extract
B5: in the assay with cynomolgus EpCAM protein, the “Cynomolgus EpCAM/Control” value amounted to 8 ratio and the ELISA absorbance is 0.9 absorbance. Besides, in the assay with human EpCAM protein, the ELISA absorbance is 1.3 absorbance and the “Human EpCAM/Control” value was found to be 12 ratio.

B6: Llama anti-EpCAM single domain antibody EPL120 (VHH)
VHH: QVQLQESGGGLVQAGGSLRLSCAASGFIFRAASISWYRQSPGNERELVATINSGGFTNYADSVLGRFTISRDNAKNTGYLQMNSLKPEDTAVYFCAATFLRSDGQPPIWGQGTQVTVSS
notes: E. coli periplasmic extract
For the molecule B6, in the assay with cynomolgus EpCAM protein, the “Cynomolgus EpCAM/Control” value came out at 4 ratio and the ELISA absorbance stood at 2.3 absorbance. Besides, in the assay with human EpCAM protein, the ELISA absorbance stood at 3.2 absorbance and the “Human EpCAM/Control” value is 5 ratio.

B7: Llama anti-EpCAM single domain antibody EPL152 (VHH)
VHH: QVQLQESGGGLVQAGGSLRLSCVHSGSIFRASTMAWYRQAPGKQRELVAQIMSGGGTNYAGSVKGRFTISRDNANNTVYLQMNSLKPEDTAVYYCNAAQITSWGPKVYWGQGTQVTVSS
notes: E. coli periplasmic extract
For B7, in the assay with cynomolgus EpCAM protein, the “Cynomolgus EpCAM/Control” value is 4 ratio and the ELISA absorbance came to 2.8 absorbance. Further, in the assay with human EpCAM protein, the ELISA absorbance was found to be 3.4 absorbance and the “Human EpCAM/Control” value turned out to be 4 ratio.

B8: Llama anti-EpCAM single domain antibody EPL20 (VHH)
VHH: QVQLQESGGGLVQAGGSLKLSCAASGNVFRAATMAWYRQAPEKQREMVATIASGGTTNYADFVKGRFTISRDNAKNTVYLQMNTLKPEDTAVYYCNAGYLTSLGPKNYWGQGTQVTVSS
notes: E. coli periplasmic extract
Consider B8, for which, in the assay with cynomolgus EpCAM protein, the “Cynomolgus EpCAM/Control” value stood at 4 ratio and the ELISA absorbance was 2.2 absorbance. For the same molecule, in the assay with human EpCAM protein, the ELISA absorbance turned out to be 2.9 absorbance and the “Human EpCAM/Control” value stood at 6 ratio.

B9: Llama anti-EpCAM single domain antibody EPL125 (VHH)
VHH: B8 VHH with K19R, A40V, G98L, N107S
notes: E. coli periplasmic extract
As to B9, in the assay with cynomolgus EpCAM protein, the “Cynomolgus EpCAM/Control” value amounted to 8 ratio and the ELISA absorbance came to 3.5 absorbance. Further, in the assay with human EpCAM protein, the ELISA absorbance is 3.5 absorbance and the “Human EpCAM/Control” value amounted to 8 ratio.

B10: Llama anti-EpCAM single domain antibody EPL31 (VHH)
VHH: QVQLQESGGGLVHTGGSLRLSCAASGDTFLRYAMGWFRQAPGKEREFVAAITWNGGNTDYAGSLKGRFTISRDNTKNTVYLQMNSLKPEDTAVYYCAADLTFGLASSHYQYDYWGQGTQVTVSS
notes: E. coli periplasmic extract
Consider B10, for which, in the assay with cynomolgus EpCAM protein, the “Cynomolgus EpCAM/Control” value turned out to be 6 ratio and the ELISA absorbance is 0.5 absorbance. In the assay with human EpCAM protein, the ELISA absorbance amounted to 0.6 absorbance and the “Human EpCAM/Control” value is 7 ratio.

B11: Llama anti-EpCAM single domain antibody EPL136 (VHH)
VHH: B10 VHH with H13Q, T14P
notes: E. coli periplasmic extract
On to B11, for which, in the assay with cynomolgus EpCAM protein, the “Cynomolgus EpCAM/Control” value amounted to 13 ratio and the ELISA absorbance was 1.3 absorbance. For the same molecule, in the assay with human EpCAM protein, the ELISA absorbance turned out to be 0.9 absorbance and the “Human EpCAM/Control” value is 9 ratio.

B12: Llama anti-EpCAM single domain antibody EPL57 (VHH)
VHH: B10 VHH with A24F, G62D, K87R
notes: E. coli periplasmic extract
As for B12, in the assay with cynomolgus EpCAM protein, the “Cynomolgus EpCAM/Control” value amounted to 27 ratio and the ELISA absorbance is 3.4 absorbance. Moreover, in the assay with human EpCAM protein, the ELISA absorbance turned out to be 1.7 absorbance and the “Human EpCAM/Control” value was determined as 14 ratio.

B13: Llama anti-EpCAM single domain antibody EPL55 (VHH)
VHH: B10 VHH with H13Q, T14A
notes: E. coli periplasmic extract
As to B13, in the assay with cynomolgus EpCAM protein, the “Cynomolgus EpCAM/Control” value came out at 7 ratio and the ELISA absorbance amounted to 0.6 absorbance. Besides, in the assay with human EpCAM protein, the ELISA absorbance was 0.4 absorbance and the “Human EpCAM/Control” value was determined as 5 ratio.

B14: Llama anti-EpCAM single domain antibody EPL86 (VHH)
VHH: QVQLQESGGGLVQPGGSLRLSCAASGFTFSDWAMSWVRQAPGKGLEWVSGIHYGDHTTHYADFVKGRFTISRDDAKNTLYLQMNSLKPEDTAVYYCARGSTKGQGTQVTVSS
notes: E. coli periplasmic extract
With B14, in the assay with cynomolgus EpCAM protein, the “Cynomolgus EpCAM/Control” value worked out at 31 ratio and the ELISA absorbance is 3 absorbance. Further, in the assay with human EpCAM protein, the ELISA absorbance is 0.8 absorbance and the “Human EpCAM/Control” value was determined as 8 ratio.

B15: Llama anti-EpCAM single domain antibody EPL153 (VHH)
VHH: B14 VHH with G50S, A97E, R98K, S100T, K102R
notes: E. coli periplasmic extract
Regarding B15, in the assay with cynomolgus EpCAM protein, the “Cynomolgus EpCAM/Control” value turned out to be 21 ratio and the ELISA absorbance stood at 2.2 absorbance. In the assay with human EpCAM protein, the ELISA absorbance was found to be 3.1 absorbance and the “Human EpCAM/Control” value was determined as 31 ratio.

(Values after US20240336909A1 (HARPOON THERAPEUTICS, published 2024).)
